Source: US8524666 (IBCC, dated 2013)

Key:
Experiment in all cases: GST pull-down from transfected MCF-7 lysate, western blot
[1] = biological target: T1, vimentin deletion mutant containing aa 97-466 of SEQ ID NO: 1 (human, UniProt P08670 97-464)
T1 construct: Tested in lysate of transfected MCF-7 cells; The forward oligo carries an ATG start codon before the fragment; not shown: C-terminal Myc and His tags of the pcDNA3.1/MycHis B vector
Method: (§1) Full length vimentin or its deletion mutant constructs were transfected into MCF-7 cells. After incubation cells were lysed and lysate was used in pull-down reaction using GST-tagged CD44-HABD proteins immobilised onto glutathione sepharose beads. After pull-down, beads were washed and bound proteins were eluted. Eluates were analysed on western blot. A, vimentin deletion mutants used in pull-down reactions. B, WB of pull-down reactions from vimentin and its deletion mutant transfected cell lysates.
(§2) CD44-3MUT binding of vimentin deletion mutants was tested using GST pull-down from cell lysates. MCF-7 cells were transfected with vimentin deletion-constructs on 15 cm cell culture plates using 20 µg DNA with polyethyleneimine (PEI; DNA and PEI were used in ratio 1:2). Transfected cells were incubated at 37° C. for 72 h. Thereafter, adherent cells were washed once with cold PBS and lysed in 2 ml of lysis buffer containing 50 mM Tris pH 8.0, 50 mM NaCl, 2% CHAPS and protease inhibitor cocktail (Roche). For removal of insoluble material the lysates were centrifuged 14000 rpm 30 min at 4° C. Resulting lysates were used in GST pull-down. For pull-down 10 µg GST, GST-HABD or GST-3MUT were immobilised onto glutathione sepharose 4 fast flow beads (GE Healthcare) in 0.5 ml of PBS. Cell lysates were precleared by incubating the lysates with GST-coupled glutathione beads for 2 h at 4° C. with continuous rotation. After preclearing, the lysates (0.6 vol per reaction) were incubated over-night at 4° C. with GST, GST-HABD or GST-3MUT proteins immobilised onto 25 µl glutathione sepharose beads. After pull-down reactions, beads were washed 4 times with 0.3 ml vol wash buffer containing 50 mM Tris pH 8.0, 150 mM NaCl and protease inhibitor cocktail. Bound proteins were eluted 3 times with 25 µl volume elution buffer 20 mM reduced glutathione, 50 mM Tris pH 8.0. Eluates were pooled and after SDS PAAG pull-down reactions were analysed by western blotting with anti-His specific pAb (H-15) (Santa Cruz Biotechnology) or anti-vimentin specific pAb (Genway).

[2] = biological target: T2, vimentin deletion mutant containing aa 134-466 of SEQ ID NO: 1 (human, UniProt P08670 134-464)
T2 construct: Tested in lysate of transfected MCF-7 cells; not shown: EGFP and linker of the pEGFP-C3 vector
T2 sequence (P08670 other isoform, or with tags, fused parts or gaps mutant): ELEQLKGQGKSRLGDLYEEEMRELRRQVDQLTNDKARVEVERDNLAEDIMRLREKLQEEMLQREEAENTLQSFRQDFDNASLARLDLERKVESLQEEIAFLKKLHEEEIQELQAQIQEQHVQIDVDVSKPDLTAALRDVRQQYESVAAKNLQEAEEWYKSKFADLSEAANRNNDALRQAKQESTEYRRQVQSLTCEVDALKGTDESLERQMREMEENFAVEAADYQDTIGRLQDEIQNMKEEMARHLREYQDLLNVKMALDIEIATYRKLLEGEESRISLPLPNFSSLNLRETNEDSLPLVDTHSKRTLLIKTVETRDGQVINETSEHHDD
Method: as §1, §2

[3] = biological target: T3, vimentin deletion mutant containing aa 407-466 of SEQ ID NO: 1 (human, UniProt P08670 407-464)
T3 construct: Tested in lysate of transfected MCF-7 cells; not shown: EGFP and linker of the pEGFP-C2 vector
T3 sequence (P08670 other isoform, or with tags, fused parts or gaps mutant): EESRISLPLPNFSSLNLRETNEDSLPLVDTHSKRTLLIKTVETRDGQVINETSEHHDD
Method: as §1, §2

Measured: binding result

T1 sequence (P08670 other isoform, or with tags, fused parts or gaps mutant): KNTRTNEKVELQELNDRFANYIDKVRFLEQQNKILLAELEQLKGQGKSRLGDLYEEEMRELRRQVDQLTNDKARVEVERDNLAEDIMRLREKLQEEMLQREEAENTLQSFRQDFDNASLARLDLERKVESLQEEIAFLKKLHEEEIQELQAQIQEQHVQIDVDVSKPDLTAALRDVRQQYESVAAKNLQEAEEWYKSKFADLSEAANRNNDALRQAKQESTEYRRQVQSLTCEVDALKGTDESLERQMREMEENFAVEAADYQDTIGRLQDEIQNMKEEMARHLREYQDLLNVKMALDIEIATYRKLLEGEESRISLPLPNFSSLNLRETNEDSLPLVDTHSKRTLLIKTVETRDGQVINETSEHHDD

B1: GST tagged CD44-HABD R41AR78SY79S mutant (CD44-3MUT) (other, not shown: a dimerising Fc or GST; small tags and cut ends)
chain: QIDLNMTCRFAGVFHVEKNGAYSISRTEAADLCKAFNSTLPTMAQMEKALSIGFETCSSGFIEGHVVIPRIHPNSICAANNTGVYILTSNTSQYDTYCFNASAPPEEDCTSV
notes: Immobilised on glutathione sepharose beads in the pull-downs; also called GST-3MUT; GST-SB101
no binding: [1] | [2] | [3]
